According to publication PMC10662374, “Structures of the interleukin 11 signalling complex reveal gp130 dynamics and the inhibitory mechanism of a cytokine variant” (Nature Communications, 2023):
Numbering of substitutions follows the chain as printed.

T1: IL-11_(Δ10/Mutein)/IL-11Rα_(D1-D3) binary complex (human, UniProt P20809 32-199; Q14626 23-319, W147A | ^58AMSAG^62 to ^58PAIDY^62)
T1 construct: IL-11, human, IL-11Δ10 with W147A and 58-62 AMSAG to PAIDY, as m4; numbers count on: the mature protein; IL-11Rα, human, D1-D3, as m8; m4 with m8; source: formed from the purified proteins; in ITC by titrating the cytokine into IL-11Rα; not shown: His6, N-terminal, cleaved; His8, N-terminal, cleaved
T1 sequence 1: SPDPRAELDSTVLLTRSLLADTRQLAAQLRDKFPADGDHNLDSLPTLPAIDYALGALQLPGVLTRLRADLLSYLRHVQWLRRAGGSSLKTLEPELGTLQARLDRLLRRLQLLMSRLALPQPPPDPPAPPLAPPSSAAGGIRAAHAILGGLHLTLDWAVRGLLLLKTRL
T1 sequence 2: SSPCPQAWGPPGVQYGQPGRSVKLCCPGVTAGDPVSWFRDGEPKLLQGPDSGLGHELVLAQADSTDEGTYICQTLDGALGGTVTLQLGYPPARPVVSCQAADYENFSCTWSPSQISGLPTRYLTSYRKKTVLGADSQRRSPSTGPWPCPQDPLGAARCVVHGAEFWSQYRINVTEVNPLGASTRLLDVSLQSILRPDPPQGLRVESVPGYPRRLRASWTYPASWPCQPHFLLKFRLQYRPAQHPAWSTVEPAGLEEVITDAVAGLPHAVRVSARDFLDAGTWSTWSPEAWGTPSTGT

T2: gp130EC (human, UniProt P40189 23-619, N-linked glycans (N21, N61, N135 seen in the structures))
T2 construct: Secreted with a honeybee-melittin signal peptide; D5-D6 are not in the deposited model 8DPT; also called complete extracellular domains of gp130; D1-D6 domains of gp130; not shown: His8, N-terminal, cleaved
T2 sequence (looked up): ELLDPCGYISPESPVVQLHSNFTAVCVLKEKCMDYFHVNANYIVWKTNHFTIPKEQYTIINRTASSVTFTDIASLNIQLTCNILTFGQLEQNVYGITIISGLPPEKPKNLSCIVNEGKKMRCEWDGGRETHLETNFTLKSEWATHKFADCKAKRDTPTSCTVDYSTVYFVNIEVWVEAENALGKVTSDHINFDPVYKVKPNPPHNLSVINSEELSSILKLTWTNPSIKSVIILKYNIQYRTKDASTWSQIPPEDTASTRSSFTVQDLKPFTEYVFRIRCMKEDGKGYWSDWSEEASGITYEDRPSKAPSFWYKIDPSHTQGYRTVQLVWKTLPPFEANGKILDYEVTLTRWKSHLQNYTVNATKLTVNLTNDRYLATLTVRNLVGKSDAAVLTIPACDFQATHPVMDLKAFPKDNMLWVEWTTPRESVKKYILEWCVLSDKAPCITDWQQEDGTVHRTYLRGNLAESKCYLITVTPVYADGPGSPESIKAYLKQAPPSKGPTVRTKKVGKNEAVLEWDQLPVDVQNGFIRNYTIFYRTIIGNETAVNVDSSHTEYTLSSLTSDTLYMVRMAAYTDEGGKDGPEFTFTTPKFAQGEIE

B1: gp130_(D1-D3) (receptor, human)
chain: GELLDPCGYISPESPVVQLHSNFTAVCVLKEKCMDYFHVNANYIVWKTNHFTIPKEQYTIINRTASSVTFTDIASLNIQLTCNILTFGQLEQNVYGITIISGLPPEKPKNLSCIVNEGKKMRCEWDGGRETHLETNFTLKSEWATHKFADCKAKRDTPTSCTVDYSTVYFVNIEVWVEAENALGKVTSDHINFDPVYKVKPNPPHNLSVINSEELSSILKLTWTNPSIKSVIILKYNIQYRTKDASTWSQIPPEDTASTRSSFTVQDLKPFTEYVFRIRCMKEDGKGYWSDWSEEASGITYEDR
modifications: N-linked glycans (N21, N61, N135 seen in the structures)
notes: glycoprotein 130 (gp130), human, domains D1-D3; Secreted with a honeybee-melittin signal peptide; not shown: His8, N-terminal, cleaved
B2: IL-11Δ10/IL-11Rα_(D1-D3)/gp130EC trimer (complex, human)
chain 1: T1 sequence 1 with P48A, A49M, I50S, D51A, Y52G, A137W
chain 2: T1 sequence 2
chain 3: T2 sequence (looked up)
notes: IL-11, human, IL-11Δ10, as m1; numbers count on: the mature protein; IL-11Rα, human, D1-D3, as m8; gp130, human, D1-D6, as m12; Two such trimers associate to the hexamer; also called one half of the gp130EC complex; source: equimolar mix of the purified proteins; not shown: His6, N-terminal, cleaved; His8, N-terminal, cleaved; copies: 1 + 1 + 1
B3: IL-11Δ10/IL-11Rα_(D1-D3) binary complex (complex, human)
chain 1: T1 sequence 1 with P48A, A49M, I50S, D51A, Y52G, A137W
chain 2: T1 sequence 2
notes: IL-11, human, IL-11Δ10, as m1; numbers count on: the mature protein; IL-11Rα, human, D1-D3, as m8; m1 with m8; also called IL-11Rα_(D1-D3)/IL-11Δ10 binary complex; binary IL-11/IL-11Rα complex; source: formed from the purified proteins (IL-11Δ10 from E. coli, IL-11Rα_(D1-D3) from Sf21); in ITC by titrating the cytokine into IL-11Rα; not shown: His6, N-terminal, cleaved; His8, N-terminal, cleaved; …
B4: IL-11Δ10 (ligand, human)
chain: T1 sequence 1 with P48A, A49M, I50S, D51A, Y52G, A137W
notes: numbers count on: the mature protein; also called N-terminally truncated form of IL-11; WT IL-11Δ10; not shown: His6, N-terminal, cleaved

What was measured:
[1] = molecular target: B3; assay: ITC; gp130 in the syringe titrated against the cytokine/IL-11Rα_(D1-D3) complex formed in the cell, 288 K, TBS pH 8.5, 1:1 interaction model, n = 3; settings: both partners purified
[2] = molecular target: T1, IL-11_(Δ10/Mutein)/IL-11Rα_(D1-D3) …; assay: as above; settings: both partners purified
[3] = molecular target: IL-11_(Δ10/PAIDY)/IL-11Rα_(D1-D3) binary complex (human) (UniProt P20809); assay: as above
[4] = molecular target: the molecule itself; assay: AUC; sedimentation velocity, 50,000 rpm, 20 °C, c(s) model with floating frictional ratio (SEDFIT)
gp130EC [5] = molecular target: T2, gp130EC; assay: ITC; gp130 in the syringe titrated against the cytokine/IL-11Rα_(D1-D3) complex formed in the cell, 288 K, TBS pH 8.5, 1:1 interaction model, n = 3; settings: both partners purified
gp130EC [6] = molecular target: T2, gp130EC; assay: cryo-EM structure; IL-11Δ10/IL-11Rα_(D1-D3)/gp130EC complex, 1.5 mg/mL, with 1–2 mM n-dodecyl β-D-maltoside, not size exclusion purified; C2 symmetry, 3.8 Å; settings: both partners purified

Binder: B1
Kd [1]: 3 nM | dH [1]: -34 kJ/mol | Kd [2]: 55 nM | Kd [3]: 20 nM

Binder: B2
binding result [4]: binds

Binder: B3
Kd (gp130EC [5]): 4 nM

Binder: B4
binding result (gp130EC [6]): binds
